From patent publication US20140154248A1
Like-named read-outs stand apart in the source and are kept apart here.

Columns and labels:
Assay in all cases: cell-based or functional assay
transferrin receptor = transferrin receptor (UniProt P02786)
human mesothelin (human) [1] = molecular target: human mesothelin (human) (UniProt Q13421)
human mesothelin (human) [2] = molecular target: human mesothelin (human) (UniProt Q13421); remark: listed apart in the source

UniProt Q13421, sequence (Q13421 other isoform, or with tags, fused parts or gaps): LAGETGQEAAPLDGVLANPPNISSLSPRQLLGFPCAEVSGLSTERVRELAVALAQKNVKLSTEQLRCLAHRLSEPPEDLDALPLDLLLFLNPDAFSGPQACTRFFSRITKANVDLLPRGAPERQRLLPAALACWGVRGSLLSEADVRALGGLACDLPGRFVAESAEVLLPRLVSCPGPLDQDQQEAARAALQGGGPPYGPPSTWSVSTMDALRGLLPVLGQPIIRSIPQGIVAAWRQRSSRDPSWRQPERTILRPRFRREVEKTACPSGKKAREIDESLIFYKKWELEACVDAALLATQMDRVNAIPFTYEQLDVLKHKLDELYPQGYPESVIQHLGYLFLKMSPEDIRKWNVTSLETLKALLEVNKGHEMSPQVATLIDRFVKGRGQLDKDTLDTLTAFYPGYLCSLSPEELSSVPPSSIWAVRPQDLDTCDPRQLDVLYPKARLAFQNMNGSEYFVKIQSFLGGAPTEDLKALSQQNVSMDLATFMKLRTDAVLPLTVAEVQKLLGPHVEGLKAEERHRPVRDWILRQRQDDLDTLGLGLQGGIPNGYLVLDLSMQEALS
UniProt P02786, sequence (P02786 whole entry): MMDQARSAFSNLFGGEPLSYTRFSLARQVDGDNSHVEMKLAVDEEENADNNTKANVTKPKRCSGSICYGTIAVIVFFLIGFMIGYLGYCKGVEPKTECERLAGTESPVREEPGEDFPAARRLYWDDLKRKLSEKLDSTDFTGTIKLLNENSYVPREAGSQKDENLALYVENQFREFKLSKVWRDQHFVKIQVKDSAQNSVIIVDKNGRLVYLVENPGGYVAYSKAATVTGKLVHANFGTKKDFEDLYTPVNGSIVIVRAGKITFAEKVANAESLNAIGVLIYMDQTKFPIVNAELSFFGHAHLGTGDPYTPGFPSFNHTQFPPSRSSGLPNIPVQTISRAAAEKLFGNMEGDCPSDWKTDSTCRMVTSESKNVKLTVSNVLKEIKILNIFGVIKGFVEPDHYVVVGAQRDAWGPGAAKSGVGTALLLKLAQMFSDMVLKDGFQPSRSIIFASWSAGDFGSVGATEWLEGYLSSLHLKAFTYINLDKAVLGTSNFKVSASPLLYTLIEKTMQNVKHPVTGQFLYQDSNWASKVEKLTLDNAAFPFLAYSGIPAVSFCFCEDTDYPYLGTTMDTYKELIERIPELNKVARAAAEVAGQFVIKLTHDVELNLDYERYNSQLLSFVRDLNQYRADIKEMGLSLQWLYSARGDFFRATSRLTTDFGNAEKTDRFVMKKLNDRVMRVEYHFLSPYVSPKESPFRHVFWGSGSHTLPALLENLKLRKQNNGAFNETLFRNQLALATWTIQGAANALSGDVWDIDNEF

Substance | reduction of viability of patient cells NCI-M-02 and NCI-M-03 (crystal violet) (transferrin receptor) [%] | EC50 (ng/ml), cytotoxicity WST-8, A431/K5 cells (human mesothelin (human) [1]) [ng/mL] | EC50 (ng/ml), cytotoxicity WST-8, A1847 cells (human mesothelin (human) [1]) [ng/mL] | EC50 (ng/ml), cytotoxicity WST-8, HAY cells (human mesothelin (human) [1]) [ng/mL] | EC50 (ng/ml), cytotoxicity WST-8, KB31 cells (human mesothelin (human) [1]) [ng/mL] | EC50 (ng/ml), cytotoxicity WST-8, L55 cells (human mesothelin (human) [1]) [ng/mL] | EC50 (ng/ml), cytotoxicity WST-8, M30 cells (human mesothelin (human) [1]) [ng/mL] | EC50 (ng/ml), cytotoxicity WST-8, OVACR-8 cells (human mesothelin (human) [1]) [ng/mL] | decrease in viability of patient cells NCI-M-02 and NCI-M-03 (crystal violet) (human mesothelin (human) [1]) [%] | decrease in viability of patient cells NCI-M-16 and NCI-M-19 (crystal violet) (human mesothelin (human) [1]) [%] | decrease in viability of patient cells NCI-M-02 and NCI-M-03 (crystal violet) (human mesothelin (human) [2]) [%]
HB21 (anti-transferrin receptor/PE38) | 90 | – | – | – | – | – | – | – | – | – | –
SS1P (SS1 (dsFv)-PE38) (from UniProt P11439 278-638) | – | 0.17 | 4.59 | 4.79 | 0.47 | 5.32 | 2.56 | 1.4 | > 65 | > 75 | > 60
